Results from PMC12117036.

Target: rhodamine-labeled rabbit skeletal muscle actin (rabbit) (UniProt P68135)

Sequence of espin (ectoplasmic specialization protein), recombinant protein (B1AK53 whole entry): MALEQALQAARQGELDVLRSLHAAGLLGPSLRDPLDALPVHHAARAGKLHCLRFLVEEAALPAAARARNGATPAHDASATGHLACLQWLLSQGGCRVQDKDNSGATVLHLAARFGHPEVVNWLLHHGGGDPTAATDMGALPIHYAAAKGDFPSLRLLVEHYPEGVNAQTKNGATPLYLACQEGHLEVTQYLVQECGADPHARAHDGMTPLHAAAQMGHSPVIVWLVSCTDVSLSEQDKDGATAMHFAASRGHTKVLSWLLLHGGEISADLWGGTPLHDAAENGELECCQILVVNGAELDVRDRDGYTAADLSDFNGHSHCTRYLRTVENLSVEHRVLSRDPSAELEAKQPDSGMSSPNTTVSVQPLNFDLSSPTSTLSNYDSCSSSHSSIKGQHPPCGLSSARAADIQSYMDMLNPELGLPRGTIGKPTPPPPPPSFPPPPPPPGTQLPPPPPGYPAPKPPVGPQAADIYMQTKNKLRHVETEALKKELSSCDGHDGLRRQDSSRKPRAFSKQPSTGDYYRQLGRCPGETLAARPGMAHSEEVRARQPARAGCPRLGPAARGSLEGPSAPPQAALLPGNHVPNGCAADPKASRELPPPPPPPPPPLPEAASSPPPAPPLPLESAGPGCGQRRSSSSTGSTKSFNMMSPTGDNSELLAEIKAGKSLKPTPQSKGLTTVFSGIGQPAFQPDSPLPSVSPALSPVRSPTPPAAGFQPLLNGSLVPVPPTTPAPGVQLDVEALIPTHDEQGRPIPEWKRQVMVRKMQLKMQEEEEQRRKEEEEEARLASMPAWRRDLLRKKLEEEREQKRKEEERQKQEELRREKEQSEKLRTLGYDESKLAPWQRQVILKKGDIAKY

espin (ectoplasmic specialization protein), recombinant protein (from UniProt B1AK53 1-854) (natural protein)
minimum concentration of purified espin at which bundling of pre-polymerized rhodamine-actin filaments (3 uM) was seen by confocal imaging (Fig. 4L): 100 nM
